Data on seven molecules can be found in patent US20200017563A1 (University of California, published 2020).

Data set [1] concerns the target Human Tau K18 2×VY (I278V/N279Y) (human) (UniProt P10636). As to the kind of experiment: cell-based or functional assay.
Data set [2] has as its target Human Tau K18 2×IN (V308I/Y309N) (human) (UniProt P10636). As to the kind of experiment: cell-based or functional assay.
In data set [3] the target is Human Tau40 (residues 1-441) with a C-terminal His-tag (human, UniProt P10636 1-757). Put plainly: cell-based or functional assay.
Data set [4] deals with the molecule itself. Put plainly: MicroED structure of fibril nanocrystals; self-association. Here is the method: (§1) Nanocrystals of […] (SEQ ID NO: 12) synthetic peptide (purchased from Genscript) were prepared from 30 mg/ml stocks dissolved in water by the addition of 45 mM arachidonic acid to concentrated peptide. Subsequently crystals were grown in batch at 37° C. by the addition of 10 μl of precipitant (32% PEG10K in 100 mM phosphate citrate, pH 4.2) to 5 μl of protein. After 18 hours nanocrystals were resuspended by pipetting, spun down in an epitube and the resulting crystalline pellet was washed three times with water. Nanocrystals of VQIINK (SEQ ID NO: 11) peptide (purchased from Genscript) were grown by vapor diffusion from peptide at 15 mg/ml as a 1:2 drop ratio (protein:reservoir) from 0.29 M LiNO3, 24% (w/v) PEG 3350 at 18° C. and similarly harvested for data collection.
(§2) MicroED data were collected by spotting 2-3 μl of crystals onto TEM grids with carbon film support and plunge frozen in liquid ethane using a Vitrobot Mark IV (FEI). Diffraction images were collected on an FEI Tecnai F20 TEM at 200 kV as a continuous rotation tilt series at a rate of 0.2° per second with 2 second exposures per image. Diffraction data from several crystals were indexed, merged and scaled with XDS and XSCALE.²⁷ Molecular replacement was performed with Phaser²⁸ using a polyalanine search model composed of an ideal β-strand. The structure of VQIINK (SEQ ID NO: 11) was solved using a truncated version of […] […]

Data set [5] deals with the molecule itself. As to the kind of experiment: MicroED structure of nanocrystals; self-association. The protocol: as §1, §2

Chain of Human Tau40 (residues 1-441) with a C-terminal His-tag (P10636 other isoform, or with tags, fused parts or gaps): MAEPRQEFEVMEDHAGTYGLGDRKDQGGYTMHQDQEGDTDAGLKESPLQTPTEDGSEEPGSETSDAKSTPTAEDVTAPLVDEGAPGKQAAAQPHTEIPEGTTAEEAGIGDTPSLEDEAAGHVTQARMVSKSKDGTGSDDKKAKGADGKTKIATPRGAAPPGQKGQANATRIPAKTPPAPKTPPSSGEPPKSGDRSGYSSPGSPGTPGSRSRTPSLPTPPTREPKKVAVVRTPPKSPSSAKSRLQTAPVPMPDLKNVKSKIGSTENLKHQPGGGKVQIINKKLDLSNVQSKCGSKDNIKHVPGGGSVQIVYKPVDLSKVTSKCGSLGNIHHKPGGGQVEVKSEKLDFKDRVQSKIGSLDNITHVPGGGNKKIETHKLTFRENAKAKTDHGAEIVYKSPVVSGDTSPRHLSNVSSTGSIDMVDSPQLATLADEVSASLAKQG

In data set [1], “Human Tau K18 2×VY (I278V/N279Y) (from UniProt P10636 561-689)” displayed a ThT fluorescence, time to half maximum of fibril formation (50 µM, heparin, shaking, 37° C.) of 220 min.

“Human Tau K18 2×IN (V308I/Y309N) (from UniProt P10636 561-689)” registered a ThT fluorescence, time to half maximum of fibril formation (50 µM, heparin, shaking, 37° C.) in data set [2] of 70 min. Take DVQWINKKRK [WINK inhibitor peptide]: the “IC50 of inhibition of seeding by pre-formed Tau40 fibers in biosensor cells” value (“IC50 of inhibition of seeding” below) in data set [3] stood at 25 µM.

On to DVWMINKKRK [W-MINK Phase 2 inhibitor peptide], for which the “IC50 of inhibition of seeding” value in data set [3] was 9 µM.

DVQMINKKRK [MINK inhibitor peptide]: the “IC50 of inhibition of seeding” value in data set [3] amounted to 22 µM.

B1: KVQIINKKLD synthetic peptide (ten residue Tau segment) (peptide)
peptide: KVQIINKKLD
notes: The peptide corresponds to Tau40 residues 274-283; also called ten residue VQIINK segment
Turning to B1, the binding result in data set [4] is given as “binds”.

Turning to VQIINK [VQIINK peptide (six residue Tau segment)], in data set [5], the binding result is “binds”.
